Laboratory results reported in publication PMC12751603 (Journal of Experimental & Clinical Cancer Research : CR, 2025).
Non-standard residues stand in square brackets, D forms with d. No end group written: not given here. pY = N[C@@H](Cc1ccc(OP(=O)(O)O)cc1)C(=O)O

Legend:
GST-PTPN9 Y333A = target: T1, GST-PTPN9 Y333A (UniProt P43378 1-593, Y333A); assay: cell-based or functional assay
T1 sequence (looked up): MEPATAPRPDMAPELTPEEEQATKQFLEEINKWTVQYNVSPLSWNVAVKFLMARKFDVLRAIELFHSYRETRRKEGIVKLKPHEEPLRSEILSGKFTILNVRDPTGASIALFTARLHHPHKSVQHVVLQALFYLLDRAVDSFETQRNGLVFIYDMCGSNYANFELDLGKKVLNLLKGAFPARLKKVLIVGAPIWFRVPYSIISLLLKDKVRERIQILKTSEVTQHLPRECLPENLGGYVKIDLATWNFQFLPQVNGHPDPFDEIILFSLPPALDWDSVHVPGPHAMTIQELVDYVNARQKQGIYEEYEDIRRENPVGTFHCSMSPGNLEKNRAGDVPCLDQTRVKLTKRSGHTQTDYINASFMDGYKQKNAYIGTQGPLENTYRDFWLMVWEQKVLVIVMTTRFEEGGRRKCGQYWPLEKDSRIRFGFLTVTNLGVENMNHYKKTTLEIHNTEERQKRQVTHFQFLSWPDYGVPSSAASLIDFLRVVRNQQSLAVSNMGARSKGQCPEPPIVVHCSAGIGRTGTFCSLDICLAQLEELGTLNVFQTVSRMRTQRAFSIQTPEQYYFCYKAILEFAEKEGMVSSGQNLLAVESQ

GST-PTPN9 D335A = target: T2, GST-PTPN9 D335A (UniProt P43378 1-593, D335A); assay: cell-based or functional assay
T2 sequence (looked up): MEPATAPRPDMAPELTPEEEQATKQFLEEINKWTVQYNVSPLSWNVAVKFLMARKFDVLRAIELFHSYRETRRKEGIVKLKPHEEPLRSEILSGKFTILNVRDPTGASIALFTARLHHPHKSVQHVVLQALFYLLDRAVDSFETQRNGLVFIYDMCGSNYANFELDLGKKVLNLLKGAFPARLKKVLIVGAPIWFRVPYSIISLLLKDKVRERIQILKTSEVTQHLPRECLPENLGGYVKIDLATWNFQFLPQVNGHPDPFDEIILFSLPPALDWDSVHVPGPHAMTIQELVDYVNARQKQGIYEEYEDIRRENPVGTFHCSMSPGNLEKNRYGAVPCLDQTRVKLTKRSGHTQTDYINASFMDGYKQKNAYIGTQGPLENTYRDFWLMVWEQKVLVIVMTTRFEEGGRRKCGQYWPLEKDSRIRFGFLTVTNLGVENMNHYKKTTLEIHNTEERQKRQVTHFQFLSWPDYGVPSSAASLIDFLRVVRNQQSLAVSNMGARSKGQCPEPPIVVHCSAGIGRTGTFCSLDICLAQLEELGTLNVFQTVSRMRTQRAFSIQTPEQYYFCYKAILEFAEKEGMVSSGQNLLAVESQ

IYETD[pY][pY]RKGGK [p-IGF1R^Y1165/1166 peptide]
Kcat of phosphatase activity against the p-IGF1R^Y1165/1166 peptide (GST-PTPN9 Y333A): 3.42 s⁻¹ | Kcat of phosphatase activity against the p-IGF1R^Y1165/1166 peptide (GST-PTPN9 D335A): 1.78 s⁻¹
